Target: T1, recombinant flag-tagged NDRG1 purified from Drosophila S2 cells (human, UniProt Q92597-1 1-394)
T1 construct: NDRG1; The vector pMT/BiP/V5-His adds a BiP secretion signal (the protein was collected as secreted protein); also called NDRG1flag; NDRG1Flag; not shown: Flag, C-terminal, kept
Test: pull-down; NDRG1Flag bound to M2 agarose; 1 microgram of purified Rab4aGST loaded with 10 µM GTPγS (30 min, 37 °C) in 20 mM HEPES, 1 mM MgCl2, 1 mM DTT, 100 mM potassium acetate, incubated 1 h; Western blot
Conditions: both partners purified

T1 sequence (Q92597 whole entry): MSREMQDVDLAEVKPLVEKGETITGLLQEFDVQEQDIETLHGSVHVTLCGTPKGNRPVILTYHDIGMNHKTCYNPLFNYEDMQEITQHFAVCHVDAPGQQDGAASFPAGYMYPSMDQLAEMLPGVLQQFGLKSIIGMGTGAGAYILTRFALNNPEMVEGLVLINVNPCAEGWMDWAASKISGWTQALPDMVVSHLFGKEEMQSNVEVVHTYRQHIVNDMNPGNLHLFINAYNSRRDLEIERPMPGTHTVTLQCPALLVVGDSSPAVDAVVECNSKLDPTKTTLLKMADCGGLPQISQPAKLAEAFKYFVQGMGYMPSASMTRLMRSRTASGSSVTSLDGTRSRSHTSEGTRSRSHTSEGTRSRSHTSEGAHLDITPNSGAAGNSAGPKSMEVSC

binding result: binds
B1: Rab4a produced as a GST fusion protein (natural protein, UniProt P20338 1-218, looked up)
chain: MSQTAMSETYDFLFKFLVIGNAGTGKSCLLHQFIEKKFKDDSNHTIGVEFGSKIINVGGKYVKLQIWDTAGQERFRSVTRSYYRGAAGALLVYDITSRETYNALTNWLTDARMLASQNIVIILCGNKKDLDADREVTFLEASRFAQENELMFLETSALTGENVEEAFVQCARKILNKIESGELDPERMGSGIQYGDAALRQLRSPRRAQAPNAQECGC
notes: Rab4a amplified from a prostate cDNA library and cloned in PGEX2T; also called Rab4aGST; recombinant Rab4a; source: E. coli BL21 (DE3), purified (glutathione agarose)

Reference: paper PMC1952073, “The N-Myc Down Regulated Gene1 (NDRG1) Is a Rab4a Effector Involved in Vesicular Recycling of E-Cadherin” (PLoS ONE, 2007)
